*1 amine or outer side, *2 acyl side, *3 side chain or, on linkers, in order; H or OH if unused. Bridges are numbered along the chain shown (N, C = ends). Primed or numbered codes have the meaning given here. [ ]: non-standard residue; d: D form. The star is where a group is joined. TATA = O=C(CC[*:1])N1CN(C(=O)CC[*:2])CN(C(=O)CC[*:3])C1; NOTA = O=C(O)CN1CCN(CC(=O)O)CCN(CC(=O)*)CC1; Hyp = O=C(O)[C@@H]1C[C@@H](O)CN1; hArg = N=C(N)NCCCC[C@H](N)C(=O)O; PEG2′ = not defined here; Sar = CNCC(=O)O
Assays:
His-tagged human EphA2 = His-tagged human EphA2 (human, UniProt P29317 24-537); assay: SPR
Sequence of His-tagged human EphA2 (P29317 24-537): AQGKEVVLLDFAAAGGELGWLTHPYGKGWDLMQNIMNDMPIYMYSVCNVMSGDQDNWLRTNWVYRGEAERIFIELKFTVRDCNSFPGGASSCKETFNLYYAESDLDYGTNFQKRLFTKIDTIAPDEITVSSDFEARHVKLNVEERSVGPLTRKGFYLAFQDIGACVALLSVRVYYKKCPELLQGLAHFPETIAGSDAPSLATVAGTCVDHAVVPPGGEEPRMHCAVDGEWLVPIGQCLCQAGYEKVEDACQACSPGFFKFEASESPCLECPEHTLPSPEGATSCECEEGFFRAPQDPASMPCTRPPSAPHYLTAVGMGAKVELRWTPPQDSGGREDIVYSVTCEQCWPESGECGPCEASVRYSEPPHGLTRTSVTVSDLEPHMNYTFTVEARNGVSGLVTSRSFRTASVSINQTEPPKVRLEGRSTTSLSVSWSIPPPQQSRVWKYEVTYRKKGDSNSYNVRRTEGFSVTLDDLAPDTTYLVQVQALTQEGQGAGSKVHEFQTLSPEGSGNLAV

His-tagged mouse EphA2 = target: T1, His-tagged mouse EphA2 (mouse, UniProt Q03145 26-538); assay: SPR
T1 chain: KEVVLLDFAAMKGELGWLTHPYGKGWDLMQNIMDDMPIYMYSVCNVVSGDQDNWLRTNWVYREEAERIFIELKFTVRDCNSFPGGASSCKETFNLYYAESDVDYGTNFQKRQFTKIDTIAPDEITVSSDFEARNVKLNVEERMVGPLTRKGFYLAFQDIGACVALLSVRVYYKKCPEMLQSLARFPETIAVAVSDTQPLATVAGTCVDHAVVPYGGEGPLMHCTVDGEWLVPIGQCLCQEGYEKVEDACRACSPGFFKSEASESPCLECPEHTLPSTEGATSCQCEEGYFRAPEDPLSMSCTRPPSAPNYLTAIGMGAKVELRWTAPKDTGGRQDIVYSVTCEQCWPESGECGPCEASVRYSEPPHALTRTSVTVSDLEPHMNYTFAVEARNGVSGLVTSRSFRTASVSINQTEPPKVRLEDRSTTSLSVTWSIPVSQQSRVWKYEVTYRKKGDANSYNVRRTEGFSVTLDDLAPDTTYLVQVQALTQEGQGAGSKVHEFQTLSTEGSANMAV

B1: AJ201 (peptide)
peptide: {NOTA-PEG2′}-GR[Sar][Sar][Sar]GA[hArg]DC[Hyp]LVNPLCLHP[dD]W[hArg]C-NH2
modifications: linker 10-17-24 via TATA; not fully specified; also: hydroxyproline, place not given here
koff (His-tagged human EphA2): 0.00133 s⁻¹ | koff (His-tagged mouse EphA2): 0.00301 s⁻¹

From paper PMC11984392 (2025)
